Earlier results in publication PMC4017372.

Legend:
[1] = biological target: HypB (Helicobacter pylori) (UniProt O25560)
[2] = biological target: UreE (Helicobacter pylori) (UniProt B5Z672); assay: ITC
Chain of UniProt B5Z672 (B5Z672 whole entry): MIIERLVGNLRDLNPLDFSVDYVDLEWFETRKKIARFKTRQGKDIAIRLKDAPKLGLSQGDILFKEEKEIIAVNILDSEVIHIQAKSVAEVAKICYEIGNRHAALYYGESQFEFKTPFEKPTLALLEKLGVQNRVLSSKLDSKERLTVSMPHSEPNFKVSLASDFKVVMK

Chain of UniProt O25560 (O25560 whole entry): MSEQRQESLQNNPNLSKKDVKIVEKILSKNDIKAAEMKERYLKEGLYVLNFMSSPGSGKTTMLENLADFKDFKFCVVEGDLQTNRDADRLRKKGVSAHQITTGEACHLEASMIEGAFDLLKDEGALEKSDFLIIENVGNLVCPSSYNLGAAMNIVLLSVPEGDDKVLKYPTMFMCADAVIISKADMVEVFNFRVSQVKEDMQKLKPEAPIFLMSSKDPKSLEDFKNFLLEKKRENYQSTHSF

Row | Substance | Kd [1] | Kd [2]
1 | HypA (from UniProt P0A0U5) | 52 µM | 
2 | UreG (from UniProt B6JPH1) |  | 4 µM
